One data set has as its target T1, endogenous HDAC3, O15379.
T1 chain: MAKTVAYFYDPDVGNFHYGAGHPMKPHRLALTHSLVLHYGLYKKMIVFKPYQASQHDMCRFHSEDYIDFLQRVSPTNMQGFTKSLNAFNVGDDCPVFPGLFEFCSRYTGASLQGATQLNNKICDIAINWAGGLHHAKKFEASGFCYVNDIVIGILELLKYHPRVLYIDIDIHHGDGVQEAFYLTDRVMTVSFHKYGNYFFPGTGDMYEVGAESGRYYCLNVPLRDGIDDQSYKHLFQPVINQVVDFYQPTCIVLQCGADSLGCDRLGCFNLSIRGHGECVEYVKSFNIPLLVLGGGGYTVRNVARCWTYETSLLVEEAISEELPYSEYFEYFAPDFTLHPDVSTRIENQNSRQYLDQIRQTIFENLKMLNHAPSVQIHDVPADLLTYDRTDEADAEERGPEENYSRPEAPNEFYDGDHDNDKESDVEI

For the next data set, the target named is endogenous HDAC1 (UniProt Q13547 1-482). The data set can be described thus: GST pull-down from SupT1 cell extracts, western blot.
The target in the next data set is endogenous HDAC2 (UniProt Q92769 1-488). Described as above.
Sequence of endogenous HDAC2 (Q92769 whole entry): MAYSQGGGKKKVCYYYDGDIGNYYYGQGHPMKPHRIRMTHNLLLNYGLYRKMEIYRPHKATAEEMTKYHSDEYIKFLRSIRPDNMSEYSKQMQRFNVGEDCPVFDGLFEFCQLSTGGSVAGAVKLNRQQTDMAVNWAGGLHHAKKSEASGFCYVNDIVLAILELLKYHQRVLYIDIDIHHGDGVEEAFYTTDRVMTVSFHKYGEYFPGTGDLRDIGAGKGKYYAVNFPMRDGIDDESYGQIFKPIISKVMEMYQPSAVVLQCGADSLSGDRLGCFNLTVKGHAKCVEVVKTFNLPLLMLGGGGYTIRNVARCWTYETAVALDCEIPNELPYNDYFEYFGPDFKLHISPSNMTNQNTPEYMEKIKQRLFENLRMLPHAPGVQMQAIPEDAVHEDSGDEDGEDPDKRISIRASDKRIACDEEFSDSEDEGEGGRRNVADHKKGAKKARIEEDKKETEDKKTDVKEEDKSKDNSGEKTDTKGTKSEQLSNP

Sequence of endogenous HDAC1 (Q13547 whole entry): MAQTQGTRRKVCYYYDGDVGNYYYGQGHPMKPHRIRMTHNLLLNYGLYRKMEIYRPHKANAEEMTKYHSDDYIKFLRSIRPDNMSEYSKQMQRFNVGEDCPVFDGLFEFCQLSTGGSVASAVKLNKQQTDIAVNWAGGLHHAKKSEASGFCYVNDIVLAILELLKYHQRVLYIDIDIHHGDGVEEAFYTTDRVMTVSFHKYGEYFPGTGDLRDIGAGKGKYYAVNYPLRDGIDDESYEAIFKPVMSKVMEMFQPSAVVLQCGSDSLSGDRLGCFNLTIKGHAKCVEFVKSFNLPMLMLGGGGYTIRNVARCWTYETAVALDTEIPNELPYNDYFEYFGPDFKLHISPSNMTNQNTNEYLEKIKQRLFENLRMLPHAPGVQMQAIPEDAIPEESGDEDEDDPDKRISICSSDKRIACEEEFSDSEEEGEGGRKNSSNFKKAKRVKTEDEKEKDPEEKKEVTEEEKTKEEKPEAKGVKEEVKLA
Procedure for endogenous HDAC1: (§1) After incubation for 3 hours at 4° C. with rocking, reactions were washed three times in IPLS, three times in the same buffer but at 1 M NaCl, and two times in HD buffer (Fischle et al., supra). Pulldown reactions were split, and either processed for histone deacetylase activity assays or for western blotting. For pulldown reactions with ³⁵S-labeled proteins, cDNAs were transcribed and translated with the TNT reticulocyte system (Promega). The labeling reaction (5 μl) was incubated with GST fusion proteins in a total volume of 200 μl of GST buffer (20 mM Tris-HCl, pH 8.0, 150 mM KCl, 5 mM DTT, 2 mM EDTA, 10% glycerol, 0.5% non fat dry milk, 0.1% NP-40) for 1 h at 4° C. with rocking. Reactions were washed five times in the same buffer, and bound proteins were resolved on denaturing SDS-PAGE gels for analysis by autoradiography.
(§2) After extensive washing, the bound material was tested for HDAC activity.
Procedure for endogenous HDAC2: as §1, §2

B1: GST-HDAC7(aa 438-912) (enzyme)
chain: QGGHRPLSRAQSSPAAPASLSAPEPASQARVLSSSETPARTLPFTTGLIYDSVMLKHQCSCGDNSRHPEHAGRIQSIWSRLQERGLRSQCECLRGRKASLEELQSVHSERHVLLYGTNPLSRLKLDNGKLAGLLAQRMFVMLPCGGVGVDTDTIWNELHSSNAARWAAGSVTDLAFKVASRELKNGFAVVRPPGHHADHSTAMGFCFFNSVAIACRQLQQQSKASKILIVDWDVHHGNGTQQTFYQDPSVLYISLHRHDDGNFFPGSGAVDEVGAGSGEGFNVNVAWAGGLDPPMGDPEYLAAFRIVVMPIAREFSPDLVLVSAGFDAAEGHPAPLGGYHVSAKCFGYMTQQLMNLAGGAVVLALEGGHDLTAICDASEACVAALLGNRVDPLSEEGWKQKPNLNAIRSLEAVIRVHSKYWGCMQRLASCPDSWVPRVPGADKEEVEAVTALASLSVGILAEDRPSEQLVEEEEP
notes: also called active GST-HDAC7; not shown: glutathione-S-transferase (GST) of the pGEX4T1 vector (Pharmacia), N-terminal fusion partner
Take B1: the HDAC activity associated with the GST pull-down from GST-HDAC4 depleted lysate against GST depleted lysate (fold reduction) with endogenous HDAC3, O15379 turned out to be 3. The binding result in the data set with endogenous HDAC1 and in the data set with endogenous HDAC2 was “no binding” each time.

The values above are taken from US20030143712A1 (J DAVID GLADSTONE INSTITUTES, published 2003).
